Experimental data taken from patent US20110104140A1, “USE OF NON-CATALYTIC FORM OF HEPARANASE AND PEPTIDES THEREOF FOR REVERSING THE ANTI-COAGULANT EFFECTS OF HEPARINOIDS” (priority 2006, published 2011).
Entries after “also recorded” stand apart in the source; their conditions may differ.

Columns and labels:
[1] = molecular target: T1, heparanase (Homo sapiens, UniProt Q9Y251); details: previously shown, WO 2005/071070; cited from earlier work
T1 sequence (Q9Y251 158-543 limits assumed): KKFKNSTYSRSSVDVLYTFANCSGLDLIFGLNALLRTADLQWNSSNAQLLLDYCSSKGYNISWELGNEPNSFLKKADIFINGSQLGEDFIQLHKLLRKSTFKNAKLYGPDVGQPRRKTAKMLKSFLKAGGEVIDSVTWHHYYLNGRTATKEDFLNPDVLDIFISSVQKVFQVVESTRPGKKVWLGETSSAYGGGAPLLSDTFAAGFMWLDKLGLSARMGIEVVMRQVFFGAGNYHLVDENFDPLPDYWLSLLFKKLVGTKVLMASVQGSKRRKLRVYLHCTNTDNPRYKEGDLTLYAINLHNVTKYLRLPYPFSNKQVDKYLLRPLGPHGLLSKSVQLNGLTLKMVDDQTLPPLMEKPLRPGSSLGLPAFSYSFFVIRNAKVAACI

[2] = system: Factor Xa; experiment: Factor Xa activity in plasma with heparin / LMWH (anti-Xa activity); assay type: biochemical, human; details: for Reversal of Factor Xa inhibitory effect of heparin: peptide, dose dependent, complete at 1 mg/ml, FIG. 6; for Reversal of heparin anti-Xa activity: increasing doses of heparanase proenzyme, in the presence of AT
Description: Heparin inhibits the activity of activated coagulation factor X (Xa). […] Abbreviations: act. (activity), plas. (plasma).
(§1) Coagulation Assays • aPTT-Automatic determination of activated partial thromboplastin time (aPTT) of samples was performed in duplicates, by mixing pooled normal plasma with aPTT reagent (FSL actin, Dade Behring). After exactly 10 min, the clotting time was determined on Sysmex CA1500 analyzer. • Xa activity—Photometric determination of anti-Xa activity was performed to evaluate the activity of LMWH in human plasma on Sysmex CA1500 analyzer, using the LMWH Kit (Chromogenics). • PT—Prothrombin time (PT) was determined using the Innovin reagent (Dade Behring) on Sysmex CA1500 analyzer. • Protein C—Protein C activity was determined by the Berichrom Protein C kit, and ATIII was measured by the chromogenic Berichrom Antithrombin III kit (both from Dade Behring). • Platelet aggregation—Platelet aggregation was measured on normal donor platelets utilizing the Payton Aggregocorder type aggregometer (Payton Associates). • Protein S—Free Protein S was measured with the Liatest kit (Diagnostica Stago). All coagulation assays were subjected to external quality control program (NEQUAS, Sheffield, UK).
In recent years LMWH became widely used anti-coagulants due to their prominent anti-coagulant activity, and improved pharmacokinetics compared with un-fractionated heparin. However, there is still no existing anti-dot to inhibit these clinically highly abundant anti-coagulants, in the case of urgent clinical needs. Such needs may occur during extensive bleedings (e.g. brain) caused by LMWH overdose, or un-controlled bleedings in LMWH treated individuals due to other medical causes. Therefore, the effects of heparanase pro-enzyme on the anti-coagulant activities of heparinoids, was next tested by the inventors. […] Similar effects of heparanase were observed on plasma treated with unfractionated heparin (not shown).

[3] = system: heparin anti-coagulant effects on thrombin activity; experiment: Thrombin time assay (TTA) in normal plasma with heparin; assay type: biochemical; details: FIG. 3
Excerpt: In the thrombin time assay (TTA), clot is generated within normal plasma. […] Abbreviations: cont. (control), sec. (seconds), N. coag. (No coagulation).
The extent of blood coagulation responses requires the balance by anticoagulant components in the microenvironment of the endothelium, represented by cell surface HSPG and associated coagulation inhibitors. Heparanase, which is released from platelets upon activation may function as a physiological procoagulant. […] Two coagulation assays are affected by heparinoids: activated partial thromboplastin time (aPTT) which measures the intrinsic coagulation pathway, and thrombin time (TT) which measures the thrombin-mediated conversion of fibrinogen to fibrin. As illustrated by FIG. 1, in both cases, heparin forms a ternary complex with the natural thrombin inhibitor antithrombin III (ATIII) and thrombin, resulting in thrombin inactivation. […] The inventors therefore next examined the effect of heparanase on the heparin induced reduction of both, aPTT and TT responses.

[4] = system: extrinsic coagulation pathway; experiment: Prothrombin time (PT); assay type: biochemical; details: for Effect on PT response: not shown
Description: as §1
(§2) To examine the possible involvement of heparanase in the coagulation process, variety of coagulation tests including activated […] (aPTT, testing the intrinsic coagulation pathway), prothrombin time (PT, testing the extrinsic coagulation pathway), thrombin time (TT, testing thrombin mediated fibrin generation), as well as protein C and protein S (both coagulation inhibitors) were performed by the inventors.

[5] = system: heparin anti-coagulant effects on the aPTT response; experiment: aPTT assay in normal plasma with heparin; assay type: biochemical
Description: In the aPTT assay, clot is generated within normal plasma by the intrinsic coagulation pathway. […] Abbreviations: cont. (control), N. coag. (No coagulation).
as §1
The extent of blood coagulation responses requires the balance by anticoagulant components in the microenvironment of the endothelium, represented by cell surface HSPG and associated coagulation inhibitors. Heparanase, which is released from platelets upon activation may function as a physiological procoagulant. […] Two coagulation assays are affected by heparinoids: activated partial thromboplastin time (aPTT) which measures the intrinsic coagulation pathway, and thrombin time (TT) which measures the thrombin-mediated conversion of fibrinogen to fibrin. As illustrated by FIG. 1, in both cases, heparin forms a ternary complex with the natural thrombin inhibitor antithrombin III (ATIII) and thrombin, resulting in thrombin inactivation. […]

[6] = molecular target: T2, Factor Xa (Bos taurus, UniProt P00743); experiment: Factor Xa activity, direct effect; assay type: biochemical, human; details: Heparanase 10 μg/ml, no heparinoid, normal value 100%
T2 construct: purchased Chromogenics
T2 sequence (P00743 234-492 limits assumed): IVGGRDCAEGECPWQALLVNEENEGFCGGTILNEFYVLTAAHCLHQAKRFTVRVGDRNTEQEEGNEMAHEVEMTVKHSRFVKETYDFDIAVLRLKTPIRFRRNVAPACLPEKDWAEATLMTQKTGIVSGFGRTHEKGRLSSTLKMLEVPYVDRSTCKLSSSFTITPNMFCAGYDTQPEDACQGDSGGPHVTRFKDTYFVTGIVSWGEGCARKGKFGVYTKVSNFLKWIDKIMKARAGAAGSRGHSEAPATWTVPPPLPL
T2 sequence (P00743 41-180 limits assumed): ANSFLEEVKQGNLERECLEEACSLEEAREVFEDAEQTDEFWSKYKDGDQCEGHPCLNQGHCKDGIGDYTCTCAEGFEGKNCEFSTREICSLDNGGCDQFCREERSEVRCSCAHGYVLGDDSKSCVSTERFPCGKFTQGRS
Description: as §1

[7] = system: intrinsic coagulation pathway; experiment: Activated partial thromboplastin time (aPTT), direct effect; assay type: biochemical; details: Heparanase 10 μg/ml; normal range 25-34 sec
Description: as §1, with “UK). […]” for “UK).”

[8] = molecular target: T3, Protein S (Homo sapiens, UniProt P07225); experiment: Protein S activity (Liatest kit); assay type: biochemical; details: Heparanase 10 μg/ml; normal range 54-138%
T3 construct: from tissue; host or cells: normal plasma
T3 sequence (P07225 42-676): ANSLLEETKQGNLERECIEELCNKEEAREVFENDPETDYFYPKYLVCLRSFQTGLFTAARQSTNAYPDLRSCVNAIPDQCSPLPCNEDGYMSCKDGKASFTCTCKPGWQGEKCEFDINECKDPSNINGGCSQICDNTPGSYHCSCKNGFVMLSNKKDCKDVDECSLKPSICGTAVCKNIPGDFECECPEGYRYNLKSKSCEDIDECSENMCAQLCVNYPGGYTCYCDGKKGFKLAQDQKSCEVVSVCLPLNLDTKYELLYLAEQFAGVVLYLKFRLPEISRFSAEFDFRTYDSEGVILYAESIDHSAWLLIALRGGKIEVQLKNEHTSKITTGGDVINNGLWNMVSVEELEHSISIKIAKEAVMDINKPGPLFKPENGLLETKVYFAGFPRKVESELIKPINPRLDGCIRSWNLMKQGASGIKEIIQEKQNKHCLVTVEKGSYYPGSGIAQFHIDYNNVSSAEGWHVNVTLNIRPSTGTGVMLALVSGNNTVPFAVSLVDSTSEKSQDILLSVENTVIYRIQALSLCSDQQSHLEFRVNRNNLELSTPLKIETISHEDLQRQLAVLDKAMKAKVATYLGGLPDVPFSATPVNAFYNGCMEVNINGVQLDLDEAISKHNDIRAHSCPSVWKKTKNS
Description: as §1

[9] = molecular target: T4, Antithrombin III (Homo sapiens, UniProt P01008); experiment: Antithrombin III (chromogenic Berichrom Antithrombin III kit); assay type: biochemical; details: Heparanase 10 μg/ml; normal range 74-114%
T4 construct: from tissue; host or cells: normal plasma
T4 sequence (P01008 33-464): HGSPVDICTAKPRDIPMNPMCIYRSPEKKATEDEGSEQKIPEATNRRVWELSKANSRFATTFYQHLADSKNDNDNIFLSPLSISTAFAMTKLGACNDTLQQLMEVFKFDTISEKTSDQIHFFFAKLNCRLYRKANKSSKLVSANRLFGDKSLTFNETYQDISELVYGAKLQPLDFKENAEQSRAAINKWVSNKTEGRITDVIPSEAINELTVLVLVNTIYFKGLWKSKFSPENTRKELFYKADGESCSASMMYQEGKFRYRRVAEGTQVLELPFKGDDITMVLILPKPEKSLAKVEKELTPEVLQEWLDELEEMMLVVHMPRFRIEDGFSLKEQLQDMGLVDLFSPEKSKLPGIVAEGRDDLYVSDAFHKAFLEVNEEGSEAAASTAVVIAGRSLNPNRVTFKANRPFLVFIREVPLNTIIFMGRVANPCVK
Description: as §1

[10] = system: thrombin mediated fibrin generation; experiment: Thrombin time (TT), direct effect; assay type: biochemical; details: Heparanase 10 μg/ml; normal range 14-21 sec
Excerpt: Another test may be the Thrombin Time (TT) assay which reflects the time taken for a plasma sample to clot on addition of thrombin. The test is essentially a measure of fibrinogen to fibrin conversion and the factors affecting this terminal stage of the coagulation system.
as §2

[11] = molecular target: T5, Protein C (Homo sapiens, UniProt P04070); experiment: Protein C activity (Berichrom Protein C kit); assay type: biochemical; details: Heparanase 10 μg/ml; normal range 75-151%
T5 construct: from tissue; host or cells: normal plasma
T5 sequence (P04070 19-461 limits assumed): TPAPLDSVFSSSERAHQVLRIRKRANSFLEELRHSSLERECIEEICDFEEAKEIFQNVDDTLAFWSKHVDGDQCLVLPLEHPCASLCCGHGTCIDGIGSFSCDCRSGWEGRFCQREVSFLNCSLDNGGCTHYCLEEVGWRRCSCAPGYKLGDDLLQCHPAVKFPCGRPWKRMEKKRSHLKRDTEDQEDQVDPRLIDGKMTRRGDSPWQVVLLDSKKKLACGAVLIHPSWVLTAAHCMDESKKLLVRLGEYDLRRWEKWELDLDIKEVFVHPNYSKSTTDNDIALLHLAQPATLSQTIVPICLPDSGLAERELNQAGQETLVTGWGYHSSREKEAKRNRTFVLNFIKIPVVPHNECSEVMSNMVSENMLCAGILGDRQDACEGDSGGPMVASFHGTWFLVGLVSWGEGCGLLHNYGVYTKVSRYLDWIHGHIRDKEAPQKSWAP
Description: as §1

[12] = system: normal donor platelets; experiment: Platelet aggregation stimulated by mediators (ADP, collagen, thrombin); assay type: cell-based; details: Heparanase 10 μg/ml
Description: as §1
The effects of heparanase on platelet aggregation stimulated by a variety of mediators (e.g. ADP, collagen, thrombin), was next tested.

[13] = system: Factor Xa; experiment: Factor Xa activity ex vivo in plasma of LMWH-treated patients; assay type: biochemical, human; details: for Factor Xa activity in LMWH-treated patient plasma: plasma of twelve LMWH-treated patients, measured within 5 min, recombinant pro-heparanase, FIG. 5A
Description: FIG. 5A. Heparanase pro-enzyme was added to plasma derived from twelve independent LMWH-treated patients. Factor Xa activity was then measured, within 5 min. Each sample was measured in the absence (open bars) or presence (filled bars) of […] recombinant pro-heparanase. Each measurement was performed in duplicates (the average of each duplicate is shown, with differences between measurements <10%).
FIG. 5B. Summary of the effect of pro-heparanase on Factor Xa activity in the presence of heparin treated plasma, and the 12 LMWH-treated patient derived plasma samples (average±S.D.). Abbreviations: act. (activity), pat. (patient), pla. (plasma) cont. (control).
In order to assess possible clinical effects of heparanase pro-enzyme as an anti-dot to LMWH, heparanase pro-enzyme effect on Factor Xa activity ex vivo, was next tested in plasma derived from patients treated with LMWH, which were incubated with 10 •g/ml heparanase proenzyme. […] Thus, heparanase pro-enzyme reduced FXa inhibitory effects of LMWH in individual patient plasma samples, even at high levels of LMWH. Overall, the level of FXa inhibitory activity of LMWH in treated patients was reduced approximately by 50% (FIG. 5B).

Lys158-Asp171 heparin-binding peptide: fourteen amino acid peptide of residues Lys158-Asp171 of human heparanase, heparin-binding domain, SEQ ID NO: 1 (KKFKNSTYSRSSVD; listed as Homo sapiens)
Inhibition of heparanase enzymatic activity [1]: inhibited heparanase enzymatic activity in a dose-responsive manner | Reversal of Factor Xa inhibitory effect of LMWH ([2]; peptide 1 mg/ml, FIG. 7): completely reverse | Reversal of Factor Xa inhibitory effect of UFH ([2]; peptide 1 mg/ml, FIG. 7): completely reverse | Reversal of Factor Xa inhibitory effect of LMWH ([2]; peptide 1 mg/ml, FIG. 7, listed as Lys158-Asp171 heparin binding (HB) peptide): abolished | Reversal of Factor Xa inhibitory effect of heparin [2]: completely reverse | Reversal of Factor Xa inhibitory effect of heparin ([2]; listed as Lys158-Asp171 heparin binding (HB) peptide): abolished the FXa inhibitory effects of heparin

Enoxaparin [low molecular weight heparin, reference compound]
Effect of heparinoid on Factor Xa activity ([2]; FIG. 4): reduces significantly

heparin [reference compound]
Inhibition of clot formation in thrombin time assay ([3]; 0.5 u/ml heparin): complete coagulation inhibition | Effect on PT response [4]: neither heparin nor heparanase pro-enzyme affected | Inhibition of clot formation in aPTT assay ([5]; 1 u/ml heparin, normal plasma, FIG. 2): complete coagulation inhibition

B1: Heparanase pro-enzyme: latent 65 kDa human heparanase protein with Myc and His tags, purified from conditioned medium of CHO cells (protein, UniProt Q9Y251 36-543, looked up)
pro-form: QDVVDLDFFTQEPLHLVSPSFLSVTIDANLATDPRFLILLGSPKLRTLARGLSPAYLRFGGTKTDFLIFDPKKESTFEERSYWQSQVNQDICKYGSIPPDVEEKLRLEWPYQEQLLLREHYQKKFKNSTYSRSSVDVLYTFANCSGLDLIFGLNALLRTADLQWNSSNAQLLLDYCSSKGYNISWELGNEPNSFLKKADIFINGSQLGEDFIQLHKLLRKSTFKNAKLYGPDVGQPRRKTAKMLKSFLKAGGEVIDSVTWHHYYLNGRTATKEDFLNPDVLDIFISSVQKVFQVVESTRPGKKVWLGETSSAYGGGAPLLSDTFAAGFMWLDKLGLSARMGIEVVMRQVFFGAGNYHLVDENFDPLPDYWLSLLFKKLVGTKVLMASVQGSKRRKLRVYLHCTNTDNPRYKEGDLTLYAINLHNVTKYLRLPYPFSNKQVDKYLLRPLGPHGLLSKSVQLNGLTLKMVDDQTLPPLMEKPLRPGSSLGLPAFSYSFFVIRNAKVAACI
modifications: pro-form Myc and His tags
notes: latent 65 kDa human heparanase protein with Myc and His tags, purified from conditioned medium of CHO cells
Factor Xa-activity [6]: 102% | Factor Xa-activity ([6]; listed as heparanase proenzyme): had no effect | Reversal of heparin anti-coagulant effects on thrombin time [3]: significantly prevented; also recorded: significantly reversed | Activated partial pro-thrombin time (aPTT) [7]: 29.4 s | Protein S-activity [8]: 105% | Antithrombin III [9]: 103% | Thrombin time (TT) [10]: 17.3 s | Protein C-activity [11]: 111% | Prothrombin time (PT) ([4]; Heparanase 10 μg/ml, normal range 10.03-12.43 sec, single representative experiment): 10.6 s | Effect on PT response [4]: neither heparin nor heparanase pro-enzyme affected | Reversal of heparin anti-Xa activity ([2]; FIG. 4): restoring Xa activity to normal levels | Reversal of heparin anti-Xa activity ([2]; FIG. 4, listed as heparanase proenzyme): restoring FXa activity to the normal level | Pro-coagulant effects at low concentration ([5]; heparanase concentrations of less then 5 μg/ml, not shown, assay not specified): no pro-coagulant effects | Reversal of heparin anti-coagulant effects on the aPTT response ([5]; normal plasma, neutral pH, FIG. 2): significantly reversed | Platelet aggregation [12]: No effects of heparanase | Reduction of FXa inhibitory activity of LMWH in treated patients ([13]; 10 •g/ml heparanase proenzyme, overall of 12 patients, FIG. 5B): ~50% | Factor Xa activity in LMWH-treated patient plasma [13]: significant elevation | Factor Xa activity in LMWH-treated patient plasma ([13]; listed as heparanase pro-enzyme): elevated significantly
